Measurements: PMC8745299, “Generation of Lasso Peptide-Based ClpP Binders” (International Journal of Molecular Sciences, 2021)
Bridge positions count the residues as written; N and C are the ends. Ends that are not written are not given here.

Columns and labels:
[1] = test system: ClpPs from different organisms; conditions: fully assembled ClpX hexamer; cited from earlier work
Description: ClpX carries six coupled IGF motifs in a rather favorable orientation.

[2] = cited from earlier work
Description: MccJ25 is exceptionally stable, even for lasso peptide standards.

BsClpP = target: T1, BsClpP (Bacillus subtilis, UniProt P80244); test: BsClpP peptidase activity, preparation not specified; type: biochemical, B. subtilis; conditions: summary in discussion
T1 construct: His-tag (C); made in house; host or cells: E. coli BL21 (DE3)
T1 sequence (P80244 whole entry): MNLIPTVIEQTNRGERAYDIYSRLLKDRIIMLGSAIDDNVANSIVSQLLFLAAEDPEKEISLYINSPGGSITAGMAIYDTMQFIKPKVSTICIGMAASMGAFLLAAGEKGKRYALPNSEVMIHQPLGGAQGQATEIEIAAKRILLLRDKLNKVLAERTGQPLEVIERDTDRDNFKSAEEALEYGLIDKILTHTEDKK
Procedure: (§1) Peptide degradation assays were performed in black flat-bottom 96-well plates with a total reaction volume of 100 μL and reaction temperatures of 32 °C and 37 °C for SaClpP and BsClpP, respectively. Stock solutions of ADEP2 and MccJ25 WT or variants were dissolved in DMSO and pre-diluted to 100× of the final concentration. Accordingly, 1 μL of the respective stock solution was placed at the bottom of the wells. […] 50 μL of a 2× enzyme solution (final assay concentration: 1 μM) in activity buffer was added to the plate and incubated for 15 min at 32 °C and 37 °C for SaClpP and BsClpP activity assays, respectively. The enzyme reaction was started by addition of 49 μL of a solution of the fluorogenic model peptide substrate Suc-Leu-Tyr-AMC in activity buffer at a final concentration of 200 μM. For SaClpP assays, the activity buffer was comprised of 100 mM NaCl and 100 mM HEPES at pH 7. BsClpP activity buffer (50 mM Tris-HCl, 25 mM MgCl2, 200 mM KCl, 2 mM DTT, pH 8) was used in BsClpP assays as well as in SaClpP experiments, where the buffer composition was supposed to lead to oligomeric breakdown of the SaClpP tetradecamer to allow testing the activity retaining effect of ClpP agonists. The fluorescence read-out was measured using a Tecan (Crailsheim, Germany) M200Pro plate reader (excitation/emission: 380/460 nm) every 30–60 s for 1 h. Enzyme velocity was determined by linear regression of the initial segment of the fluorescence-time plot in GraphPad Prism 5 (GraphPad Software, San Diego, CA, USA). All assays were performed in triplicate and repeated at least two times.

Enterobacteriaceae = conditions: cited from earlier work
Description: (§2) Microcin J25 (MccJ25) is the most well-studied lasso peptide (Figure 2A). […] MccJ25 enters its target cells through hijacking the TonB-dependent siderophore receptor FhuA [8, 19, 20] which explains its narrow activity spectrum. MccJ25 originates from Escherichia coli AY25 [13] and thus can be produced very well heterolo ...

[3] = test system: Gram-negative RNA polymerase; conditions: blocking of NTP uptake channel; cited from earlier work
Description: as §2

thermolysin = conditions: cleavage e.g. between Phe10 and Val11; gas phase and solution; cited from earlier work
SaClpP = target: T2, SaClpP (Staphylococcus aureus, UniProt Q2G036); test: Peptide (Suc-LY-AMC) degradation by SaClpP in destabilizing Tris buffer pH 8; type: biochemical, S. aureus; design: Strep-tag (C); made in house; host or cells: E. coli BL21 (DE3)
T2 sequence (Q2G036 1-195): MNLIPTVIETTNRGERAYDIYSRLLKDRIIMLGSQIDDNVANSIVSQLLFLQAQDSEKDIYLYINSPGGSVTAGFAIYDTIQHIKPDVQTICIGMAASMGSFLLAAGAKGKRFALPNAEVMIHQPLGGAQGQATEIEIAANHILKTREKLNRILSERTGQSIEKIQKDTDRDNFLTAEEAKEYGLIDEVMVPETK
Description: In order to assess the different MccJ25 variants, we first chose S. aureus ClpP (SaClpP) as a model peptidase and performed in vitro degradation assays with the fluorogenic model peptide substrate Suc-LY-AMC. […] To investigate whether the MccJ25 variants can exert a stabilizing effect on the oligomeric structure of tetradecameric SaClpP, we conducted peptide degradation assays under destabilizing conditions employing a Tris buffer at pH 8.
This experimental setup was then used to differentiate the MccJ25 variants regarding their effect on ClpP stability. […] The apparent affinity constant was deduced from enzyme activity assays and represents the effector molecule concentration at half maximal stimulation of enzyme activity (the lower the apparent affinity constant, the higher the affinity). To exclude that 12IGF serves as a SaClpP substrate, we incubated a mixture of SaClpP and 12IGF under assay conditions for up to 260 min.
as §1

[4] = target: T3, S. aureus ClpP (Staphylococcus aureus), Q2G036; test: SEC; analytical gel filtration, Superdex 200 3.2 Increase; SaClpP diluted 10x in BsClpP activity buffer (50 mM Tris-HCl, 25 mM MgCl2, 200 mM KCl, 2 mM DTT, pH 8), no effector; conditions: remark: other sources report otherwise
T3 chain: T2 sequence (Q2G036 1-195)

[5] = target: T3, S. aureus ClpP (Staphylococcus aureus), …; test: SEC; analytical gel filtration, Superdex 200 3.2 Increase; SaClpP in Tris buffer pH 8 (50 mM Tris-HCl, 25 mM MgCl2, 200 mM KCl, 2 mM DTT) with 12IGF; conditions: remark: other sources report otherwise
[6] = target: T3, S. aureus ClpP (Staphylococcus aureus), …; test: SEC; analytical gel filtration, Superdex 200 3.2 Increase; SaClpP in Tris buffer pH 8 (50 mM Tris-HCl, 25 mM MgCl2, 200 mM KCl, 2 mM DTT) with ADEP2; conditions: remark: other sources report otherwise
[7] = target: T3, S. aureus ClpP (Staphylococcus aureus), …; test: SEC; gel filtration of apo-SaClpP in HEPES buffer, pH 7 (purification: Superdex 200 HiLoad 16/600, 100 mM NaCl, 20 mM HEPES, pH 7; analytical: Superdex 200 3.2 Increase, 100 mM HEPES, 100 mM NaCl, pH 7); conditions: remark: other sources report otherwise

ClpX: Clp-ATPase ClpX hexamer carrying six coupled IGF motifs
ClpP affinity relative to ADEP2 [1]: weaker affinities than ADEP2

microcin J25 (GGAGHVPEYFVGIGTPISFYG; lactam N-8; also: lasso topology, tail threaded through ring) [WT MccJ25, wild type lasso peptide from Escherichia coli AY25]
thermal stability [2]: withstand autoclaving at 120 °C | effect on BsClpP activity (BsClpP): neither WT MccJ25 nor several of the other mutated variants constructed in this study affected either of the ClpPs | antibiotic activity (Enterobacteriaceae): exhibits antibiotic activity against Enterobacteriaceae | RNA polymerase inhibition [3]: inhibition of the Gram-negative RNA polymerase | stability of [2]rotaxane after loop hydrolysis by thermolysin (thermolysin): does not cause ring and tail to dissociate | SaClpP peptidase activity retained in Tris buffer (SaClpP; Tris buffer pH 8, 46 μM lasso peptide (Figure 4C), 32 °C, three independent experiments): only the three variants carrying the canonical tripeptide motif at positions 12–14 were able to retain SaClpP activity in Tris buffer | effect on SaClpP activity (SaClpP; summary in discussion): neither WT MccJ25 nor several of the other mutated variants constructed in this study affected either of the ClpPs

B1: S. aureus ClpP, Q2G036 1-195 (enzyme)
chain: T2 sequence (Q2G036 1-195)
stoichiometry N [4]: 7 | stoichiometry N [5]: 14 | stoichiometry N [6]: 14 | stoichiometry N [7]: 14
